Patent US20250276077A1, “EPHA2 ANTIBODIES” (Immunome, Inc., priority 2022, published 2025)

Legend:
[1] = target: Human EphA2 (ephrin receptor A2), native, in human tumor tissue (human) (UniProt P29317); assay: IF tumor tissue ESO, 1 ug/ml
[2] = target: Human EphA2 (ephrin receptor A2), native, in human tumor tissue (human) (UniProt P29317); assay: IF tumor tissue ESO, 3 ug/ml
[3] = target: Human EphA2 (ephrin receptor A2), native, in human tumor tissue (human) (UniProt P29317); assay: IF tumor tissue ESO, 10 ug/ml
[4] = target: Human EphA2 (ephrin receptor A2), native, in human tumor tissue (human) (UniProt P29317); assay: IF tumor tissue ESO, 30 ug/ml
[5] = target: Human EphA2 (ephrin receptor A2), native, in human tumor tissue (human) (UniProt P29317); assay: IF tumor tissue PANC, 3 ug/ml
[6] = target: Human EphA2 (ephrin receptor A2), native, in human tumor tissue (human) (UniProt P29317); assay: IF tumor tissue URO, 30 ug/ml
[7] = target: Human EphA2 (ephrin receptor A2), native, in human tumor tissue (human) (UniProt P29317); assay: IF tumor tissue ESO, 0.1 ug/ml
[8] = target: Human EphA2 (ephrin receptor A2), native, in human tumor tissue (human) (UniProt P29317); assay: IF tumor tissue MELA, 10 ug/ml
[9] = target: Human EphA2 (ephrin receptor A2), native, in human tumor tissue (human) (UniProt P29317); assay: IF tumor tissue PANC, 10 ug/ml
[10] = target: Human EphA2 (ephrin receptor A2), native, in human tumor tissue (human) (UniProt P29317); assay: IF tumor tissue PANC, 30 ug/ml
[11] = target: Human EphA2 (ephrin receptor A2), native, in human tumor tissue (human) (UniProt P29317); assay: IF tumor tissue STS, 0.1 ug/ml
[12] = target: Human EphA2 (ephrin receptor A2), native, in human tumor tissue (human) (UniProt P29317); assay: IF tumor tissue STS, 0.3 ug/ml
[13] = target: Human EphA2 (ephrin receptor A2), native, in human tumor tissue (human) (UniProt P29317); assay: IF tumor tissue PANC, 0.1 ug/ml
[14] = target: Human EphA2 (ephrin receptor A2), native, in human tumor tissue (human) (UniProt P29317); assay: IF tumor tissue Uterine, 1 ug/ml
[15] = target: Human EphA2 (ephrin receptor A2), native, in human tumor tissue (human) (UniProt P29317); assay: IF tumor tissue Uterine, 10 ug/ml
[16] = target: Human EphA2 (ephrin receptor A2), native, in human tumor tissue (human) (UniProt P29317); assay: IF tumor tissue Uterine, 0.3 ug/ml
[17] = target: Human EphA2 (ephrin receptor A2), native, in human tumor tissue (human) (UniProt P29317); assay: IF tumor tissue NSCLC-SQ, 0.1 ug/ml
[18] = target: Human EphA2 (ephrin receptor A2), native, in human tumor tissue (human) (UniProt P29317); assay: IF tumor tissue NSCLC-Adeno, 10 ug/ml
[19] = target: Human EphA2 (ephrin receptor A2), native, in human tumor tissue (human) (UniProt P29317); assay: IF tumor tissue NSCLC-Adeno, 0.1 ug/ml
[20] = target: Human EphA2 (ephrin receptor A2), native, in human tumor tissue (human) (UniProt P29317); assay: IF tumor tissue NSCLC-Adeno, 0.3 ug/ml
[21] = target: Human EphA2 (ephrin receptor A2), native, in human tumor tissue (human) (UniProt P29317); assay: IF tumor tissue RCC-papillary, 1 ug/ml
[22] = target: Human EphA2 (ephrin receptor A2), native, in human tumor tissue (human) (UniProt P29317); assay: IF tumor tissue RCC-papillary, 3 ug/ml
[23] = target: Human EphA2 (ephrin receptor A2), native, in human tumor tissue (human) (UniProt P29317); assay: IF tumor tissue RCC-papillary, 0.1 ug/ml
[24] = target: Human EphA2 (ephrin receptor A2), native, in human tumor tissue (human) (UniProt P29317); assay: tissue staining of human cancer samples, 10 ug/ml

Sequence of Human EphA2 (ephrin receptor A2), native, in human tumor tissue (human) (P29317 25-976): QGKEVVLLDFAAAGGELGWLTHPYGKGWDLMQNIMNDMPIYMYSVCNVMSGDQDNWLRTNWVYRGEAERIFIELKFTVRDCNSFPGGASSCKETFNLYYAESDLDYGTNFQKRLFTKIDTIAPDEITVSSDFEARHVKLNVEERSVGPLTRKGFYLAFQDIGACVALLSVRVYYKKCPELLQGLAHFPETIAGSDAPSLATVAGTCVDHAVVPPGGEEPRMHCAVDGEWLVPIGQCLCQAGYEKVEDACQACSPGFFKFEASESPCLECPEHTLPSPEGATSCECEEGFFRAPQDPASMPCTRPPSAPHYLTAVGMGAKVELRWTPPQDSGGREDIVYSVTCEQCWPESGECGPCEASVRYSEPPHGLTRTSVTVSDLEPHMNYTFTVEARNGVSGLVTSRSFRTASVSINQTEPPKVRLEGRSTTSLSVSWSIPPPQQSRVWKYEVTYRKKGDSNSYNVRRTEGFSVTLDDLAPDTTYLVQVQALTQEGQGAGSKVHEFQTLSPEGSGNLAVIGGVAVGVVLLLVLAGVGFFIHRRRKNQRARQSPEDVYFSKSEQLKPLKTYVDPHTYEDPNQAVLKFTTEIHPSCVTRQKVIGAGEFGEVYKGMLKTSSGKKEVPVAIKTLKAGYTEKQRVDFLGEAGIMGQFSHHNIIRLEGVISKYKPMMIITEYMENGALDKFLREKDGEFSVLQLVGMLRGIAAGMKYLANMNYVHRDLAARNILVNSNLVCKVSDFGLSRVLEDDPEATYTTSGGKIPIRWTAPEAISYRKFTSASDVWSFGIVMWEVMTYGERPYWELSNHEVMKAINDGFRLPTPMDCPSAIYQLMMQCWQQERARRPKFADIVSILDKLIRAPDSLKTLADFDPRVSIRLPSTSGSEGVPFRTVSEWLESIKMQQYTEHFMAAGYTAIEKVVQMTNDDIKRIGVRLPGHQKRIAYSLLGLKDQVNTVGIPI

Substance: AB-010018 (mouse monoclonal antibody precursor of DS-8895a; mouse IgG2a format)
- tissue reactivity score [1]: 1
- tissue reactivity score [2]: 1
- tissue reactivity score [3]: 1
- tissue reactivity score [4]: 2
- tissue reactivity score [5]: 2
- tissue reactivity score [6]: 2
- tissue reactivity score [7]: 1
- tissue reactivity score [8]: 2
- tissue reactivity score [9]: 2
- tissue reactivity score [10]: 2
- tissue reactivity score [11]: 1
- tissue reactivity score [12]: 1
- tissue reactivity score [13]: 2
- tissue reactivity score [14]: 2
- tissue reactivity score [15]: 2
- tissue reactivity score [16]: 2
- tissue reactivity score [17]: 1
- tissue reactivity score [18]: 1
- tissue reactivity score [19]: 1
- tissue reactivity score [20]: 1
- tissue reactivity score [21]: 1
- tissue reactivity score [22]: 2
- tissue reactivity score [23]: 1
- Reactive (% of samples), Bladder Cancer (Urothelial) [24]: 86%
- Reactive (% of samples), Breast Cancer [24]: 79%
- Reactive (% of samples), Cervical Cancer (Squamous) [24]: 100%
- Reactive (% of samples), Esophageal Cancer (Squamous) [24]: 33%
- Reactive (% of samples), Head & Neck Cancer (Squamous) [24]: 87%
- Reactive (% of samples), Liver Cancer (HCC) [24]: 82%
- Reactive (% of samples), Non-Small Cell Lung Cancer [24]: 90%
- Reactive (% of samples), Ovarian Cancer [24]: 88%
- Reactive (% of samples), Renal Cancer [24]: 47%
- Reactive (% of samples), Soft Tissue Sarcoma [24]: 20%
- Reactive (% of samples), Stomach Cancer (Adenocarcinoma) [24]: 88%
- Reactive (% of samples), Testicular Cancer [24]: 56%
- Reactive (% of samples), Thyroid Cancer [24]: 31%
- Reactive (% of samples), Uterine Cancer [24]: 92%
